Laboratory results published in patent US20200199533A1 (KING ABDULLAH UNIVERSITY OF SCIENCE AND TECHNOLOGY, published 2020).

What was measured:
[1] = target: T1, CD34, native glycoprotein from human HSPCs (KG1a, CD34^pos-BM, CD34^pos-UCB, CD34^pos-AML) (human, UniProt P28906 32-385, native glycosylation (about 120-130 kDa form); sialylated O-glycans and tyrosine sulfation are shown to matter for selectin binding); assay: SPR; CD34 captured from CD34^pos-BM lysate on 563 mAb; apparent rate constant after the last E-Ig injection
T1 construct: mature; also called E-selL CD34
T1 sequence (looked up): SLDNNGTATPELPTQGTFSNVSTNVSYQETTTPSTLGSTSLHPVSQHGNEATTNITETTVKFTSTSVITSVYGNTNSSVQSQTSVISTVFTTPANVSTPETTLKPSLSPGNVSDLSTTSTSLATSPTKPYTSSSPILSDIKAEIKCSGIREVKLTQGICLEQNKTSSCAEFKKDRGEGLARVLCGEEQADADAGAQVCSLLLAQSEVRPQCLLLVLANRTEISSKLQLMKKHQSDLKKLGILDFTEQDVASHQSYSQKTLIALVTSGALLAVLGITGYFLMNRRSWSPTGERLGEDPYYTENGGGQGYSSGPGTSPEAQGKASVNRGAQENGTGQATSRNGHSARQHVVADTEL

[2] = target: T1, CD34, native glycoprotein from human …; assay: SPR; CD34 captured from CD34^pos-BM lysate on 563 mAb, E-Ig injected, 50 mM NaCl; steady-state model
[3] = target: T1, CD34, native glycoprotein from human …; assay: SPR; CD34 captured from KG1a lysate on 563-mAb, E-Ig injected, 150 mM NaCl; apparent rate constant; 2nd experiment
[4] = target: T1, CD34, native glycoprotein from human …; assay: SPR, apparent rate constant: includes loss of CD34 or CD34⋅E-Ig from 4H11-mAb and of E-Ig from CD34⋅4H11-mAb; KG1a lysate
[5] = target: CD44 (HCELL), native glycoprotein from human HSPCs (KG1a, CD34^pos fraction) (human) (UniProt P16070); assay: SPR; CD44 captured from KG1a lysate on Hermes-3-mAb, E-Ig injected (3.9-2000 nM), 150 mM NaCl; steady-state model; 1st experiment
[6] = target: CD44 (HCELL), native glycoprotein from human HSPCs (KG1a, CD34^pos fraction) (human) (UniProt P16070); assay: SPR; CD44 captured from KG1a lysate on Hermes-3-mAb, E-Ig injected (3.9-2000 nM), 150 mM NaCl; steady-state model; 2nd experiment
[7] = target: CD44 (HCELL), native glycoprotein from human HSPCs (KG1a, CD34^pos fraction) (human) (UniProt P16070); assay: SPR; CD44 captured from KG1a lysate on Hermes-3-mAb, E-Ig injected (3.9-2000 nM), 150 mM NaCl; steady-state model; 3rd experiment
[8] = target: T2, PSGL-1, native glycoprotein from human HSPCs (KG1a, CD34^pos-BM) (human, UniProt Q14242 42-412, native glycosylation and tyrosine sulfation); assay: SPR; PSGL-1 captured from KG1a lysate on KPL-1-mAb, E-Ig injected, 150 mM NaCl; apparent rate constant; 1st experiment
T2 construct: mature; also called P-selectin glycoprotein ligand-1
T2 sequence (looked up): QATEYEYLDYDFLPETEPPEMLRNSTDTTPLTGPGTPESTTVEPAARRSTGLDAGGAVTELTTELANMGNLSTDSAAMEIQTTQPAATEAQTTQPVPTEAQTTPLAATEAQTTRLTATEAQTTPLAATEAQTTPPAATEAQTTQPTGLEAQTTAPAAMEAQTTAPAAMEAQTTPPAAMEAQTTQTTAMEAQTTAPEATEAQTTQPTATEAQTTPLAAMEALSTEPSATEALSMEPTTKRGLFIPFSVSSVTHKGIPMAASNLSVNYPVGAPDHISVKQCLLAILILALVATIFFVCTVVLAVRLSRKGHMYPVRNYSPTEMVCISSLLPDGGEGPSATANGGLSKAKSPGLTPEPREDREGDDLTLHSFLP

[9] = target: T2, PSGL-1, native glycoprotein from human …; assay: SPR; PSGL-1 captured from KG1a lysate on KPL-1-mAb, E-Ig injected, 150 mM NaCl; apparent rate constant; 2nd experiment
[10] = target: T3, CD43, native glycoprotein from KG1a cells (human, UniProt P16150 20-400, native glycosylation); assay: SPR; CD43 captured from KG1a lysate on polyclonal CD43 Ab, E-Ig injected, 150 mM NaCl; apparent rate constant; 2nd experiment
T3 construct: mature
T3 sequence (looked up): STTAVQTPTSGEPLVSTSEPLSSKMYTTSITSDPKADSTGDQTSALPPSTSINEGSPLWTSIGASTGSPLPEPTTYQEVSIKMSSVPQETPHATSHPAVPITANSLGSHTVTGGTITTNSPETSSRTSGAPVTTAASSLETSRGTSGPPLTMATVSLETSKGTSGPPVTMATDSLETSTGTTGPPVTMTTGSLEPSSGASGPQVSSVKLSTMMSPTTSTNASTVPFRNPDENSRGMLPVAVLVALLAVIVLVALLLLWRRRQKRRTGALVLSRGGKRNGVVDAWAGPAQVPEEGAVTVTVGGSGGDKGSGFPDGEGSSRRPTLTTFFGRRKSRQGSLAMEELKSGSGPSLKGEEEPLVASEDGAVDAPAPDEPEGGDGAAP

[11] = target: T2, PSGL-1, native glycoprotein from human …; assay: SPR; PSGL-1 captured from KG1a lysate on KPL-1-mAb, E-Ig injected (3.9-2000 nM), 150 mM NaCl; steady-state model; 2nd experiment

Chain of CD44 (HCELL), native glycoprotein from human HSPCs (KG1a, CD34^pos fraction) (human) (P16070 21-742): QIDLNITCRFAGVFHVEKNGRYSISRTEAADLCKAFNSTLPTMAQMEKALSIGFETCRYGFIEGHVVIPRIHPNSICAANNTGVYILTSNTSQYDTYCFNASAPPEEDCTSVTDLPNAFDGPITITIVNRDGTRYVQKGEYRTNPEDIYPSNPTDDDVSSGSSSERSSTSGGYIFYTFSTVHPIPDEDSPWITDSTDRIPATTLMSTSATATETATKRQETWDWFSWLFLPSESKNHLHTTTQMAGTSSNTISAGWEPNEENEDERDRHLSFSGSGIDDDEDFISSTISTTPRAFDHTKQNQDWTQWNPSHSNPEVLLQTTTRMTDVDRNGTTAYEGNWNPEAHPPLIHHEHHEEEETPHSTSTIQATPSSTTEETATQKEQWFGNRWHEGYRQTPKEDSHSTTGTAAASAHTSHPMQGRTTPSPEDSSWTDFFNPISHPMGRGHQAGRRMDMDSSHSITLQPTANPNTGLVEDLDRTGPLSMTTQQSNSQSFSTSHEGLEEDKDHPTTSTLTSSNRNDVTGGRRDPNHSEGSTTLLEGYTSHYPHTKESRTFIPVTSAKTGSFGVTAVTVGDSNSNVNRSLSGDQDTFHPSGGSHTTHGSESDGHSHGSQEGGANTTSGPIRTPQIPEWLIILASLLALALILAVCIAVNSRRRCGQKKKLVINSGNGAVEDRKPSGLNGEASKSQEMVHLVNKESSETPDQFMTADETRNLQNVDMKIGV

B1: recombinant E-selectin human immunoglobulin chimeric protein (Fc fusion)
chain: WSYNTSTEAMTYDEASAYCQQRYTHLVAIQNKEEIEYLNSILSYSPSYYWIGIRKVNNVWVWVGTQKPLTEEAKNWAPGEPNNRQKDEDCVEIYIKREKDVGMWNDERCSKKKLALCYTAACTNTSCSGHGECVETINNYTCKCDPGFSGLKCEQIVNCTALESPEHGSLVCSHPLGNFSYNSSCSISCDRGYLPSSMETMQCMSSGEWSAPIPACNVVECDAVTNPANGFVECFQNPGSFPWNTTCTFDCEEGFELMGAQSLQCTSSGNWDNEKPTCKAVTCRAVRQPQNGSVRCSHSPAGEFTFKSSCNFTCEEGFMLQGPAQVECTTQGQWTQQIPVCEAFQCTALSNPERGYMNCLPSASGSFRYGSSCEFSCEQGFVLKGSKRLQCGPTGEWDNEKPTCEAVRCDAVHQPPKGLVRCAHSPIGEFTYKSSCAFSCEEGFELHGSTQLECTSQGQWTEEVPSCQVVKCSSLAVPGKINMSCSGEPVFGTVCKFACPEGWTLNGSAARTCGATGHWSGLLPTCEAPTESNIP
**Q.** How did the koff [1] turn out when B1 was run?
**A.** Its koff is 0.00019 s⁻¹.

**Q.** And the Kd [2]?
**A.** Its Kd is 261 nM.

**Q.** And the koff [3]?
**A.** The koff was 0.00016 s⁻¹.

**Q.** What about the kon [3] of the same binder?
**A.** The kon was 597 M⁻¹ s⁻¹.

**Q.** And the koff [4]?
**A.** The koff was 0.00033 s⁻¹.

**Q.** What about the Kd [5] of the same binder?
**A.** Its Kd is 234 nM.

**Q.** And the Kd [6]?
**A.** Its Kd is 252 nM.

**Q.** And the Kd [7]?
**A.** The Kd was 214 nM.

**Q.** And the koff [8]?
**A.** The koff was 0.00015 s⁻¹.

**Q.** And the kon [8]?
**A.** The kon was 438 M⁻¹ s⁻¹.

**Q.** What about the koff [9] of the same binder?
**A.** The koff was 0.000165 s⁻¹.

**Q.** And the kon [9]?
**A.** The kon was 797 M⁻¹ s⁻¹.

**Q.** And the koff [10]?
**A.** The koff was 0.00042 s⁻¹.

**Q.** What about the kon [10] of the same binder?
**A.** Its kon is 1060 M⁻¹ s⁻¹.

**Q.** What about the Kd [11] of the same binder?
**A.** The Kd was 207 nM.
